From paper PMC4352707

Biological target: Cry1 (UniProt P97784)
Test: co-IP, immunoblot
Settings: reference: wild-type Hausp; sites S18

Hausp (Usp7), Hausp-V5 (from UniProt Q93009) Hausp S18A
binding against the reference: stronger
